Data: US20240360219A1

How the values were obtained:
[1] = molecular target: human TGFβ1 (human) (UniProt P01137)
[2] = molecular target: human TGFβ3 (human) (UniProt P10600)
Sequence of UniProt P10600 (P10600 301-412 limits assumed): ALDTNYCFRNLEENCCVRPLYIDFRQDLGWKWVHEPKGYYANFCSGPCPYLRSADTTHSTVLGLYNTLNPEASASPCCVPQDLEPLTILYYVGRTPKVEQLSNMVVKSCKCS

Sequence of UniProt P01137 (P01137 279-390 limits assumed): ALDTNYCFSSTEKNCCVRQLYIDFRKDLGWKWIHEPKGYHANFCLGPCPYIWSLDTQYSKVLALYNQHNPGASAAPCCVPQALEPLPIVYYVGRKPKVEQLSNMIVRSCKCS

IC50, inhibition of TGFβ1-induced Smad2 reporter activity [1]: 0.91 nM
IC50, inhibition of TGFβ3-induced Smad2 reporter activity [2]: 1.95 nM
Substance: M7824
